Assay results taken from publication PMC3245711.

Biological target: T1, human KCNJ2 channel (pND-CTFH construct, C-terminal FLAG and octa-histidine tags) (human), P63252
T1 chain: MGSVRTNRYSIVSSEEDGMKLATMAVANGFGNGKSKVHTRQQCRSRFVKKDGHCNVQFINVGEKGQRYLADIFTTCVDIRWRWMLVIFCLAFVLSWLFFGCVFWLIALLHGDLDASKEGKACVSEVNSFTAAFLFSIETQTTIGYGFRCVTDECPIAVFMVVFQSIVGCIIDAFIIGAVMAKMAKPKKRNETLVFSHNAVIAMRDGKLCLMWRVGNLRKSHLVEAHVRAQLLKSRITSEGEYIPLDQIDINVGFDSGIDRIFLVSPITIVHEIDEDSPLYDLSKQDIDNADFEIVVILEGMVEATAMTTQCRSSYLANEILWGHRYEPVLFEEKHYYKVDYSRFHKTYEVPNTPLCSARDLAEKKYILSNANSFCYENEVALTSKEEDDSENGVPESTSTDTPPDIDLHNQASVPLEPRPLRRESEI
Assay: SEC
Conditions: remark: other sources report otherwise

stoichiometry N: 4
B1: human KCNJ2 channel (pND-CTFH construct, C-terminal FLAG and octa-histidine tags), P63252 1-427 (natural protein)
chain: MGSVRTNRYSIVSSEEDGMKLATMAVANGFGNGKSKVHTRQQCRSRFVKKDGHCNVQFINVGEKGQRYLADIFTTCVDIRWRWMLVIFCLAFVLSWLFFGCVFWLIALLHGDLDASKEGKACVSEVNSFTAAFLFSIETQTTIGYGFRCVTDECPIAVFMVVFQSIVGCIIDAFIIGAVMAKMAKPKKRNETLVFSHNAVIAMRDGKLCLMWRVGNLRKSHLVEAHVRAQLLKSRITSEGEYIPLDQIDINVGFDSGIDRIFLVSPITIVHEIDEDSPLYDLSKQDIDNADFEIVVILEGMVEATAMTTQCRSSYLANEILWGHRYEPVLFEEKHYYKVDYSRFHKTYEVPNTPLCSARDLAEKKYILSNANSFCYENEVALTSKEEDDSENGVPESTSTDTPPDIDLHNQASVPLEPRPLRRESEI
